Residue numbers refer to the chain shown, from its start.
B1: 4G9-1 (antibody, human IgG1, kappa, V domains shown)
VH: QVQLVQSGAEVKKPGASVKVSCKASGYTFTTYGINWVRQATGQGLEWMGWINTYSGVPGYAQKFQGRVTMTLNTSISTAYMELSSLRSEDTAVYYCARGGRGIAYWGQGTLVTVSS
VL: DIQLTQSPSSLSASVGDRVTITCRASQGISNSLAWFQQKPGKVPKRLIYAASNLQSGVPSRFSGSGSGTEFTLTISSLQPEDFATYYCQQSYSTPYTFGQGTKLEIKR
B2: 4G9-10 (antibody, human IgG1, kappa, V domains shown)
VH: B1 VH with G100S, R101K, I103D
VL: DIVMTQSPSSLSASVGDRVTITCRASQSISTWLAWFQQKPGKAPKLLIYKASSLKSGVPSRFSGSGSGTEFTLTISSLQPDDFATYYCQQSYSTPWTFGQGTKLEIKR
B3: 4G9-8 (antibody, human IgG1, kappa, V domains shown)
VH: B1 VH with G99V, G100E, I103D
VL: EIVLTQSPSSLSASVGDRVTITCRASQDIRRDFGWYQQKPGLAPELLIYDASRLRSGVPSRFSGSGSGTLFTFTITNLQPEDFATYYCLQDYDFPRTFGQGTKVDIKR
B4: 4G9-3 (antibody, human IgG1, kappa, V domains shown)
VH: B1 VH with G102E, I103S
VL: EIVMTQSPATLSVSPGERATLSCRASQSIGTSLHWYQQKPGGAPRLLIKYASESITGIPARFSGSGSGTEFTLTISSLQSEDFAVYYCQQSNSWPYTFGQGTKLEIKR
B5: 4G9-9 (antibody, human IgG1, kappa, V domains shown)
VH: B1 VH with E46K, G100V, R101H, I103V, A104S
VL: B4 VL
B6: 4G9-5 (antibody, human IgG1, kappa, V domains shown)
VH: B1 VH with G100V, G102V, I103F, A104Y, Y105H
VL: B4 VL
B7: 5C2-3 (antibody, human IgG1, kappa, V domains shown)
VH: QVQLVQSGAEVKKPGASVKVSCKASGYTFTSYWMHWVRQAPGQGLEWMGRIHPSDSDTNYNQKFKGRVTLTVDTSTSTAYMELSSLRSEDTAVYYCAPKGNYVVRFAYWGQGTLVTVSS
VL: DIVMTQSPSSLSASVGDRVTITCRASQGIRNDLGWYQQKPGKAPKLLIYAASSLQSGVPSRFSGSGSDTDFTLTISSLQPEDFATYYCLQDYNYPWTFGQGTKVDIKR
B8: 5C2-6 (antibody, human IgG1, kappa, V domains shown)
VH: B7 VH with K99Y, G100V, N101D, Y102L, V103E, V104S, R105G
VL: DIAMTQTPSSLSASIGDRVTIACRASQGISSALAWYQQKPGRTPKLLIFDASTLQSGVPSRFSGSGSGTDFTLTISSLQPEDFATYYCQQFNTYSSVTFGQGTRLEIKR
B9: 5C2-1 (antibody, human IgG1, kappa, V domains shown)
VH: QVQLVQSGAEVKKPGASVKVSCKASGYTFNSYWMHWVRQAPGQGLEWMGRIHPRGIHTNYNQKFKGRVTLTVDTSTSTAYMELSSLRSEDTAVYYCAPSSSYAWAFAHWGQGTLVTVSS
VL: DIQMTQSPSSLSASVGDRVTITCRASQDVSTALAWYQQKPGKAPKLLIYWASTRHSGVPDRFSGSGSGTDFTLTISSLQPEDFATYYCQQHYRSPGTFGGGTKVEIKR
B10: 5C2-9 (antibody, human IgG1, kappa, V domains shown)
VH: QVQLVQSGAEVKKPGASVKVSCKASGQTFTNYLMHWVRQAPGQGLEWMGRIPLSDRDTNYNQKFKGRVTLTVDTSTSTAYMELSSLRSEDTAVYYCAPYGRSASGFSSWGQGTLVTVSS
VL: B9 VL with H91G, Y92S, R93S, S94T, G96L
B11: 5C2-8 (antibody, human IgG1, kappa, V domains shown)
VH: QVQLVQSGAEVKKPGASVKVSCKASGYTFNSYLMHWVRQAPGMGLEWMGRIRPNYSDTNYNQKFKGRVTLTVDTSTSTAYMELSSLRSEDTAVYYCAPYGNNASGFSYWGQGTLVTVSS
VL: B9 VL with G96W
B12: 5C2-2 (antibody, human IgG1, kappa, V domains shown)
VH: QVQLVQSGAEVKKPGASVKVSCKASGQTFTSYRMHWVRQAPGQGLEWMGRILPIRSDTNYNQKFKGRVTLTVDTSTSTAYMELSSLRSEDTAVYYCARDAGYGSLFAAWGQGTLVTVSS
VL: B9 VL with Y92D, R93S
B13: 5C2-5 (antibody, human IgG1, kappa, V domains shown)
VH: QVQLVQSGAEVKKPGASVKVSCKASGYTFGIYWMHWVRQAPGQGLEWMGRILPSNGYTNYNQKFKGRVTLTVDTSTSTAYMELSSLRSEDTAVYYCAPYGIYTRDFSHWGQGTLVTVSS
VL: B9 VL with H91R, Y92D, R93T, S94T, G96R
B14: 5C2-7 (antibody, human IgG1, kappa, V domains shown)
VH: B7 VH with Q43M, S54I, D55Y, S56R, K99Y, G100V, V103G, V104D, R105G
VL: B9 VL with S10T, S56I, Q89H, H91D, R93I, S94T, G96R
B15: 5C2-4 (antibody, human IgG1, kappa, V domains shown)
VH: B7 VH with S31R, S54T, D57V, K99D, G100V, V103A, V104R, R105A, Y108H
VL: B9 VL with R93G, G96W

Assays:
hPD-1-HIS (human) [1] = molecular target: hPD-1-HIS (human) (UniProt Q15116); test: ELISA, plate-coated PD-1 protein, anti-human IgG detection
Sequence of hPD-1-HIS (human) (Q15116 25-167 limits assumed): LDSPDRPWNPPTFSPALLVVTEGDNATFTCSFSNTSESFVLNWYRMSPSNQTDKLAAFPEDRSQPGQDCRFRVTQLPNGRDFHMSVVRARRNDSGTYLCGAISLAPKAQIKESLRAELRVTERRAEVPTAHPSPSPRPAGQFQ

hPD-1-HIS (human) [2] = molecular target: hPD-1-HIS (human) (UniProt Q15116); test: ELISA, plate-coated PD-1 protein, protocol of Example 1

Binder	hPD-1-HIS Binding (OD 450) (hPD-1-HIS (human) [1])	hPD-1-HIS Binding (OD 450) (hPD-1-HIS (human) [2])
B1	0.874	
B2	0.287	
B3	0.346	
B4	0.451	
B5	0.31	
B6	0.383	
B7		0.345
B8		0.267
B9		0.791
B10		0.255
B11		0.262
B12		0.395
B13		0.286
B14		0.264
B15		0.312
